# Experimental data taken from the DeepSol protein solubility set.
# Test: soluble on expression in E. coli; label from the status in PepcDB or PDB records
row,Sequence,soluble on expression in E. coli
1,MGSDKIHHHHHHMTQSHDEPMQTMMWGGNAAFIEGLYESYLQDPSSVGAEWRSYFDGLRGGAQERVHSEVQQRFYELGQHRGPVTVQVTGGASGAQQAAGALVTAYRVYGHISARNNPLKLRGVPTVPELTPEFYGLSEADLSEQVQDSPFSGTLRDVIAQLQDTYCGAIGFEYNYLPANERAWFQERIEKGRGQGRYGLSQDERRRLMQKLNAAEGLELYLKNRYPGVKRFGLEGGESFIPLMDRIIQQAGGRYGVKEVVVGMAHRGRLNTLVNIFGKPSGTLFDEFDGKKKLSDDPDIAGDVKYHMGYSSDVRTPGGPMHLAMAFNPSHLEIVSPVVHGSVRARQDRRGDTERKQVLPITVHGDAAVSGQGVVMETLNFSRLRGFTTGGAIRIVINNQIGFTISDPRDSRSSRYCTDVAKIANAPVMHVNGDDPEAVAFCGDLALAYRQEFGKDVFIDLICFRRNGHNEGDEPRMTQPVMYREIDQHPGTRALYAAQLEKDGVLAAGEGDKLVNDFRDRLDRGETVVEEMENAEQSKLAVDWSGYTNTHWKDDEVATAVPREKLEALGLKLTQVPEGFRVHRTVERTVIKAREAMARGEQPLDWGMGEMLAYASLLDEGFGLRLDGQDSGRGTFVHRHAVLHNQDAVDPLSEEYMALAHLSPEQGRVEVIDSTLSEEAVLAFEYGYSTSEPKALVAWEAQFGDFANGAQAVVDQFLSAGESKWQRLSGLTMLLPHGYEGAGPEHSSARLERYLQLCAQKNMQVVVPSSAAQIFHLLRRQVLRPYRKPLIVMTPKSLLRNKHAMSPLSDLYDGVFHEVIGDAEVQNARRVVLSSGKLHWELTEAREKDKEGYAGTALVRLEQLYPFPAEQVKAELAKHPGAQVVWAQEEPENQGAWLMIWEDLEHCLQPGQTLTHASRPRSASTAVGYTSVHVREQAKVIADALGEPITRQDVDAQVPLTEEASAQG,not soluble
2,MGSDKIHHHHHHMTRSAEPRVLQFCHGYDGPFLDCARQYASLFAGTPYKVTTVFLTGRSDPEVAARCASDEVLFLEYGSRDIRGLKLKAIRDLREIARSRDFRFCIAHRFKPIWIASLATRLPIVGVHHAFGDYQRLSRKVFAGLMSKRLSLLAVSDAVRDDIRRCLPKWPAERIETLYNRIDVAALQAEQVERLSARRQLRLPDEAWVVGNVGRLHPDKDQATLLRGFAAALPRLPQNSLLAILGSGRLEEQLKDLACELGIGERVLFLGQVEEARRYFKAFDAFALSSDHEPFGMVLLEAMVAGVPLIATACGGAREVVEGVGILFPLGDETALAEGLTHLAALDRRQREACARLMLERLETRFSDAAVRREFWRLPTIAGFASESAC,not soluble
3,MGSDKIHHHHHHMTRSFYWVDHSTQTFAERDLSKTVVVLPIAAVEQHGPHLPVDVDAAINAEIIRRTVARLQPDTDVLFLPPMMVGKSDEHIAFPGTLAISGETLRHVWLDLARSVKRAGAAKLILFNSHGGQMALMDIVCRDIRIELGMLAVSCSWFRIAPVEDLFSRAEIDHGIHGGDIETSMMLAIAPERVAMDKAENFVPLTVAIEKSGSMLTAEGAVGFGWQAQDLHPAGVCGNASNATAQKGQIVLDRAADGLVSLIAATQAFDLSQLTSQTRFSNLCRARRIP,not soluble
4,MGSDKIHHHHHHMTSKIDGLSVSSGLHRRYWNGMVADLWSVDCQSDAGGQYVSSDPRLFILLDAAGEDGADLSMAEGGGKRISGAMARAAHFIPAGLELSTAITGVKSLRHLDLHFDADILRHRLGEDAGLAALHQPRYLLDDPRLLALAELIAADVANPHPLHDLYGDGLVSALLIDVLNIRPTPTHQLPNRKRSKLAAWQLRRVCDFIEAHCLRTIRLEELAGLAGLSPTYFSHAFKASTGLSPHQWQMKARIETVKQRLRDPAVPLTVIAAETGFADAAHFARSFRRAVGLSPSEWRRVRLN,not soluble
5,MGSDKIHHHHHHMTSLKQQLLDVKGGRNFRELGGYQTVSGKKIKMHKLIRSGHLADLLKEDQEYLRRYGLKYDIDLRTSFERNKQPDRKISGVEYFADPVFDEDLTNSTMSISDMARESQDPGWGYQRMLWAYKNMATGKNANKAYQHLFEVLLANEKDSESVLFHCTAGKDRTGFGAILILTALGVPMKTIEKDYLFTNEVIKDFVSQLLAKEKAAGADDSLLATFRDLQTVQPAYFKYLLDVINRNYGSINAYLHQQIGLSNADLLDLRTIYLEK,not soluble
6,MGSDKIHHHHHHMTTEIRALYTRLPAIDRLLRDPAFSPLLAQHGHSQVVAQLRQMLDEAREQISQRQTLPDWSHDWQHACEQRLTAGQRSALRPVFNLTGTVLHTNLGRAIQAESAVEAVASAMRAPVTLEYDLDDAGRGHRDRAIADLLCQITGAEDACIVNNNAAAVLLMLAATASGREVVVSRGELVEIGGAFRIPDVMRQAGCQLHEVGTTNRTHAKDYRQAVNDNTALLMKVHTSNYSIEGFTKAVDEAELAAIGRELDVPVVADLGSGSLVDLSQYGLPKEPMPQEMIAAGVSLVSFSGDKLLGGPQAGIIVGKRALIAQLQSHPLKRALRADKMTLAALEATLRLYQHPEALREKLPTLRLLTRPAEEIRRLAERLQPDLAAHYADFAVSVAACQSQIGSGSLPVDRLPSAALTFTPHDGRGSRLEALAARWRALPCPVIGRIYDGRLWLDLRCLEDETRFMEMLLR,not soluble
7,MGSDKIHHHHHHMTTHLTGTRDEWLTARRALLDAEKTLTRHSDALARRREALPWVRVDKTYRFDTEHGAATLDDLFDGRSQLLVYHFMFGPDYKAGCPSCSALADGFDGFAVHLANHDVTLAAVSRAPLAKLLAYRQRMGWRFPWASSEGGAFNFDFNVSFTEAQQRTGDVEYNYARAAHAMDVDPPPAAVAQFAATCGTDAATYARDRPGMSAFVREDGVVYHTYSTYARGLDALWGMYAWLDRAPLGRNETGVWWRRHDEYARD,not soluble
8,MGSDKIHHHHHHMTTKYQTIISNIEQDIQKQRLKKGDKLPSIRVLSKVYYCSKDTVQRALLELKYRHLIYAVPKSGYYVLGNVSMPDNVLNLSLEDYNNMAYEDFRLCLNEALSAKDKYLFHYYHKTEGLEELREALLLYLAENSVYSNKDQLLITSGTQQALYILSQMPFPNTGKTILLEKPTYHRMEAIVAQLGLPYQTISRHFNGLDLELLESLFQTGDIKFFYTISRFSHPLGLSYSTKEKEAIVRLAQRYQVYILEDDYLGDFVKLKEPPIHYYDTHHRIIYLKSFSMSVFPALRIGALVLPSGLKPHFLTQKSLIDLDTNLLMQKALALYLENGMFQKNLRFIKRYLKQRERQLALFLKQNCPDIHYQLTPTHLVIDYTTSDSYRNFTLDKSDRIIITGKKRYLSITINQQIQSKLNSLIKNTCGKSN,not soluble
9,MGSDKIHHHHHHMTTLISFLGKGIADKTTGYRTATYRFDDDSKHTTPYFGLALAGYLRPERLILVGTAGSMWDVFFEQQDASDDDVLALIDAVRESRVDADMLSAQEKRLTKRLGLPVICRLIPYARDAAEQTEVLLTLAKLVHRSEEVFLDVTHGFRHLPMLALVAARYLAHVKDVKVRGLYYGALEMTSTNGETPVLQLDGMLQMLDWVESLATYNKDGDYGVFASLLQQDGLPEGKAKQLTRAAYFERSSNPVKARETLGSVFSAIKTHNGPMGVLFRDALTERINWFKEPDRAAWELALADAYLERRDYVRAVIYLYESFVTRAVLEHKLNPNDFSERDEAWKDARQDNKQVRKLEYLRNALAHGIKSDDKEIIRMVNDENCLDDQLKKFRRSLFN,not soluble
10,MGSDKIHHHHHHMTTRLQDIIQPEIFTEYVVQRTTEKSALVQSGIIERNAEFDALASGPNTLVNMPFWNDLTGDSEVIRDEGNLTAGKITSGKDVARKQGRARMWGASGLSALLSGDDPMRAIADLVADYWIRQDQKMLLATLEGIFNSESMADKVLDITGEPGSDALLDGDSFIDAGQLMGDAKDLLTGVMMHSAVEAYLAKRQLIEYVQEADQTDRIPYFMNKRVIVDDAMPYDTQTKEGVIYLFGTGAIASGVGSHPNILPTEVDRNSQSSSGEDFLINRRIQILHPRGVKWTENNVSDVFPTNEELADGSNWERVYEPKAIRIVKFKFKTELDVDGA,not soluble
11,MGSDKIHHHHHHMTVCVAVKVQDCIVFAADSTTSLQAVGANGEHVTMNTYDHANKLFNLRKGCPVAAMTAGIGNFGGSSISTVSKDFRSLIDRRAEGYALNWENYTIEEIVGLARKYFFEERFSSLSEKPQGSFQYWVGGYSSGEQMGEVWQFQIHNGECLEPQCSISRNVASGLAWGGAPEAINRLILGYGQRIGDALVEGGLDASLVPQAIDGIARYTQCSLVHAAMPTGDAIDLAKFLAETTKQFVRFMPGSNSVGGDLDIATITKHENFKWIARKHFYNTRINPLETNHA,not soluble
12,MGSDKIHHHHHHMTVDPSHTIPVSVTGAFCSLNCPHCGAHYLRHMISVDEIPALVKKGYRSFLISGGMLPDGSIPFEKYYEHLKELKESHGLLYNFHVGFQKSKVAKELADVVSMDFFGDETVLKSIYGLALTPQEILDIAHFYENVVFHITVGITGGKITHEEKALEILSQETDTVVLNVFIPTPGTKFGKSFPPDLQEVVKLFEKARKLFKRVILGCMQPRGEYRKKLQSELKDLVDVITKPVGGTGEFKGCCAFIGRG,not soluble
13,MGSDKIHHHHHHMTVLIIGMGNIGKKLVELGNFEKIYAYDRISKDIPGVVRLDEFQVPSDVSTVVECASPEAVKEYSLQILKNPVNYIIISTSAFADEVFRERFFSELKNSPARVFFPSGAIGGLDVLSSIKDFVKNVRIETIKPPKSLGLDLKGKTVVFEGSVEEASKLFPRNINVASTIGLIVGFEKVKVTIVADPAMDHNIHIVRISSAIGNYEFKIENIPSPENPKTSMLTVYSILRTLRNLESKIIFG,soluble
14,MGSDKIHHHHHHMTYPKRIPINAWSEVHRVARPLIITFDAYNTLYATKLPVMEQYCIVGRKYGIKANPSTLTNNFPHVFKKLKEDYPQYGKYSGIKPEQWWSILIRNVFAPNEIPDEMINEILMRFEGFDSYFVYPDLIKFLKDLKSRHPDVILGIVSNTDPIFYKLLKNIGLFETFSGHIYLSYELNLAKPDRAIFQYALDDIISKQPHLLEKYTREEILQHCFHIGDELKNDLEGAEAAGWTGILLDRNDKYGFLSNSISKPMRDEYKLSIDKIDNNSINTWEANTKQTDTLQLSERKYVVSNLEVLEELFP,not soluble
15,MGSDKIHHHHHHMVAITSCSDDSDGIPGWPWNDNSTEGPENPDVTEIKPRYVWIDAAANFPDYANNKENISTDMVKVKNAGFTDIIVDVRPTTGDVLFNTTAVDQVKRMDVWGSSGYVYYERTETWDYLQAFIDAARSQGLKVHASVNTFVGGYLCPYNLGSDGILFRDDSKKEWASVANLADGLTNTMDLLNDETDYGAKFLNPANDDVQNFVLQLLGDLAKYDLDGIILDRCRYDDYGLESDFSAVSKQKFEEYIGETVAHFPEDIMAPGTDEIPSDQPAYFKKWLEFRVKVIHDFIVKAREKVKSVNSEINFGVYVGAWYSSYYTSGVNWASPKYDTSAYYPKWATADYKNYGYADHLDYIFLGAYASVDKIYGSGEWTMEGFCKNGRELLKGDVPFSGGPDIGNGTGWTNGGQAAKIPDAIDACINNSDGFFAFDLCHIKMYDYWNAFKTGFDNYLESVQK,not soluble
16,MGSDKIHHHHHHMVKGLRQLNNRVDILSLPGAEPEVEEAKAIDEKVNQPPTKKSSFSILSDLTKHVPEFVFELFELAFNLIAVIRLRKTVKEKNITLIYERYSLFMFASVWWAKRHNLPIVLEINDSCQVQRVRSLTFKKLAAKIEGWIFKNATGLVFISTRFKEVAEQAYGEISNSVVSPNGADLDKFIIDETSGLALRSKLGVENKIVLGYVGAFVHWHGIDWFVDLACQKLKETPELVLLLVGDGVAFEGIKKRVIEAGVESQVILPGKVPHHEVSSFLSAMDLGILPDSNDYGSPMKLFEFMAMGKGMIAPDFSPIAEVVQDNATSWLFPASNKQACIDKVFEIVNDREAHQEVGKKARAYIENERQWKHNAEQLLSLVTAREKA,not soluble
